In patent publication US20220064648, “NOVEL X-[…] FOR THE USE IN DETECTION OF SNAP25” (Galderma Holding S.A., published 2022):

Key:
SNAP25 Peptide 2 (PEP2) = target: T1, SNAP25 Peptide 2 (PEP2) (Homo sapiens, UniProt P60880 SEQ:1-37); experiment: ELONA
T1 chain: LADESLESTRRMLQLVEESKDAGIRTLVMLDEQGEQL
From the text: (§1) The data in Table 2 was collected by running direct ELISA assays on the 96 X-aptamers, elucidating their ability to bind SNAP25, SNAP25 fragments (PEP1, PEP2, PEP3, and PEP4), and a negative control. The X-aptamers were biotinylated and immobilized onto streptavidin-coated plates and were utilized as detection molecules. Higher numbers represent strong binding. The negative control peptide is a random peptide to measure the amount of binding that occurs to a random amino acid sequence.

[1] = target: T2, SNAP25 Peptide 3 (PEP3; only a fragment of it is a SNAP25 subsequence) (Homo sapiens, UniProt P60880 SEQ:1-33); experiment: ELONA
T2 chain: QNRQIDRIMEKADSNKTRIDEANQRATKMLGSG
From the text: as §1

[2] = target: T3, SNAP25 full length (FLAG and MYC tagged) (Homo sapiens, UniProt P60880 SEQ:12-217); experiment: ELONA; full-length SNAP25; details: tags: FLAG and MYC
From the text: as §1

[3] = target: T3, SNAP25 full length (FLAG and MYC tagged); experiment: ELONA; details: tags: FLAG and MYC
From the text: as §1

T3 sequence (P60880 whole entry): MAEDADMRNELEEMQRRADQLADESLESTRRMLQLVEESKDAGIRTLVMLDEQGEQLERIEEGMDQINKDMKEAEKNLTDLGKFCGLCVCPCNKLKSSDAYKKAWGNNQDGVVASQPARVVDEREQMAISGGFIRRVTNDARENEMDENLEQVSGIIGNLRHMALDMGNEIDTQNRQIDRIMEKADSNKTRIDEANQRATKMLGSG

Row | Binder | binding signal (SNAP25 Peptide 2 (PEP2)) [ELISA signal] | other results
1 | PEP 2.11 (ssDNA, W indole, X amine, Y phenol modified dU [14,15,19,27]) DNA: TTTTTAAGCCCACTTGGCTGTGCACATCACAGAACAAGCAGGTGGGCCCATG | 40 | 
2 | PEP 3.09 (ssDNA, W indole, X amine, Y phenol modified dU [14X,19Y,23W,27X]) DNA: TTTTTAAGCCCACTGCACTGTGTACATCGAACTGCACCAACGTGGGCCCATG |  | binding signal [1]: 196 ELISA signal; binding signal [2]: 168 ELISA signal
3 | PEP 2.08 (ssDNA, W indole, X amine, Y phenol modified dU [15,16,17,19,20,24,27,43,46]) DNA: TTTTTAAGCCCACGTTTGTTCGGTGGTCACAGCACGCCACGGTCGTGCCATG | 65 | 
4 | PEP 2.04 (ssDNA, W indole, X amine, Y phenol modified dU [15,19,24,27,40,43,46]) DNA: TTTTTAACACGACATGGCTGTGGTCATCACAGCGCACCATTGTCGTGCCATG | 190 | 
5 | PEP 2.03 (ssDNA, W indole, X amine, Y phenol modified dU [16,19,24,27,43,46]) DNA: TTTTTAACACGACGGTGCTGTGCTGGTCACAGCACGCGCGCGTCGTGCCATG | 221 | 
6 | SNAP.04 (ssDNA, W indole, X amine, Y phenol modified dU [19,27,34,38]) DNA: TTTTTAAGCCCACCCACCTGTGGACATCGAACCTCACTGCAGTGGGCCCATG |  | binding signal [3]: 83 ELISA signal
7 | PEP 2.06 (ssDNA, W indole, X amine, Y phenol modified dU [19,24,35,38,40,43,46]) DNA: TTTTTAACACGACCGGCCTGTGGTCAGCACAGACTGTTGTGGTCGTGCCATG | 102 | 
8 | SNAP.03 (ssDNA, W indole, X amine, Y phenol modified dU [17,19,20,36,40]) DNA: TTTTTAAGCCCACGGGTGTTCGACAGACACAGCAATACATCGTGGGCCCATG |  | binding signal [3]: 92 ELISA signal
9 | PEP 2.13 (ssDNA, W indole, X amine, Y phenol modified dU [15,19,24,27,34,35,43,46]) DNA: TTTTTAAGCCCACATGCCTGTGGTCATCGAACATTGGGCCGGTCGTGCCATG | 36 | 
10 | PEP 2.01 (ssDNA, W indole, X amine, Y phenol modified dU [15,16,19,24,35,43,46]) DNA: TTTTTAACACGACGTTACTGTGGTCACCACAGGATGAGCCTGTCGTGCCATG | 592 | 
11 | PEP 2.17 (ssDNA, W indole, X amine, Y phenol modified dU [15,16,19,24,35,43,46]) DNA: TTTTTAACACGACGTTACTGTGGTCACCACAGGATGAGGCTGTCGTGCCATG | 30 | 
12 | PEP 2.15 (ssDNA, W indole, X amine, Y phenol modified dU [15,16,19,24,35,40,43,46]) DNA: TTTTTAACACGACGTTACTGTGGTCACCACAGGATGAGCTTGTCGTGCCATG | 36 | 
13 | PEP 2.18 (ssDNA, W indole, X amine, Y phenol modified dU [15Y,16W,19Y,24W,27X,35Y,43X,46Y]) DNA: TTTTTAACACGACGTTACTGTGGTCATCACAGGATGAGCCTGTCGTGCCATG | 26 | 
14 | PEP 2.16 (ssDNA, W indole, X amine, Y phenol modified dU [15,19,20,24,27,35,38]) DNA: TTTTTAAGCCCACATAGGTTCGGTGGTCACAGTGTGGTGCGGTGGGCCCATG | 31 | 
15 | PEP 2.07 (ssDNA, W indole, X amine, Y phenol modified dU [15,19,24,36,43,46]) DNA: TTTTTAACACGACGTCGCTGTGGTCAACGAACAGATACAACGTCGTGCCATG | 65 | 
16 | SNAP.02 (ssDNA, W indole, X amine, Y phenol modified dU [16,19,40,43,46]) DNA: TTTTTAAGCCCACACTGCTGTGAAGGACACAGCCCGACATCGTCGTGCCATG |  | binding signal [3]: 95 ELISA signal
17 | PEP 2.02 (ssDNA, W indole, X amine, Y phenol modified dU [15,19,20,24,27,34,35,43,46]) DNA: TTTTTAAGCCCACATACGTTCGATGGTCACAGATTGGGCAAGTCGTGCCATG | 394 | 
18 | PEP 2.10 (ssDNA, W indole, X amine, Y phenol modified dU [14,19,24,35,40]) DNA: TTTTTAAGCCCACTGGCCTGTGGTCAGCGAACTGTGCGCTGGTGGGCCCATG | 43 | 
19 | SNAP.05 (ssDNA, W indole, X amine, Y phenol modified dU [19,20]) DNA: TTTTTAAGCCCACCCCGGTTCGCCAGACGAACCCCAACAGTGTGGGCCCATG |  | binding signal [3]: 75 ELISA signal
20 | PEP 4.11 (ssDNA, W indole, X amine, Y phenol modified dU [19,20,23,43,46]) DNA: TTTTTAAGCCCACCCGAGTTCGTCCAGCGAACCACGCGCGTGTCGTGCCATG |  | binding signal [2]: 0 ELISA signal
21 | SNAP.08 (ssDNA, W indole, X amine, Y phenol modified dU [14,19,20,34,40,43,46]) DNA: TTTTTAACACGACTGAAGTTCGCCAGGCGAACATCGTGGTGGTCGTGCCATG |  | binding signal [3]: 35 ELISA signal
22 | PEP 2.09 (ssDNA, W indole, X amine, Y phenol modified dU [15,19,20,24,27,35,38,40]) DNA: TTTTTAACACGACATAGGTTCGCTGGTCACAGAATGTTGTGGTGGGCCCATG | 46 | 
23 | PEP 4.10 (ssDNA, W indole, X amine, Y phenol modified dU [19,25,34,35,40,43,46]) DNA: TTTTTAAGCCCACAAGACTGTGCGTCGCACAGATTGGCATCGTCGTGCCATG |  | binding signal [2]: 4 ELISA signal
24 | PEP 4.09 (ssDNA, W indole, X amine, Y phenol modified dU [15,17,19,20,35,43,46]) DNA: TTTTTAACACGACATATGTTCGACGGACACAGTGTGTGGCGGTCGTGCCATG |  | binding signal [2]: 0 ELISA signal
25 | SNAP.07 (ssDNA, W indole, X amine, Y phenol modified dU [19,27,35,40,43,46]) DNA: TTTTTAACACGACCGGGCTGTGCACATCGAACACTGCGGTCGTCGTGCCATG |  | binding signal [3]: 38 ELISA signal
26 | SNAP.06 (ssDNA, W indole, X amine, Y phenol modified dU [14,15,19,34,43,46]) DNA: TTTTTAAGCCCACTTCGCTGTGAGCAACGAACATCGAGCAGGTCGTGCCATG |  | binding signal [3]: 45 ELISA signal
27 | PEP 2.12 (ssDNA, W indole, X amine, Y phenol modified dU [14,19,23,25,38,40,43,46]) DNA: TTTTTAACACGACTAGACTGTGTATCCCACAGGGCAATGTGGTCGTGCCATG | 37 | 
28 | PEP 2.05 (ssDNA, W indole, X amine, Y phenol modified dU [16,19,24,43,46]) DNA: TTTTTAAGCCCACCCTACTGTGGTCACCACAGTGCAAGCCCGTCGTGCCATG | 159 | 
29 | PEP 2.14 (ssDNA, W indole, X amine, Y phenol modified dU [17,19,24]) DNA: TTTTTAAGCCCACGGGTCTGTGGTCACCGAACGACGTGGCAGTGGGCCCATG | 36 | 
